This note sets out measurements from the supplement of paper PMC12042874.

± gives the uncertainty stated by the source.

A short description of this data set: amyloid nucleation score (Sup35N fusion, yeast selection) (log enrichment); library NNK1; higher = more nucleation; inactive = no reads after selection. An outline of the steps: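 Libraries of peptides of 20 random codons fused to Sup35N were expressed in psi-negative yeast and induced 24 hours with 100 μM copper sulfate. Selection was 7 days at 30°C on medium lacking adenine and uracil, and plasmid inserts were Illumina-sequenced before and after selection. Nucleation score is the DiMSum log enrichment of output over input reads, centred on the mode score of non-aggregating sequences, and sequences with under 100 input reads were left out.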
Take GHRTWRLITAIDA: the amyloid nucleation score was 0.088 ± 0.4.
With GHSSRLRFT the figure was -0.42 ± 0.48; with GHVVLFLLYDLSFYSNIFCA, 0.712 ± 0.19; with GIFKVEHFFKFMYDLIVSKL, -0.312 ± 0.27.
With GIFSNLEVGYKPKN the figure was -0.694 ± 0.39; with GIGMRGVQHSSCEVARYWGS, 1.12 ± 0.35.
Take GIKFQSVGGGVVANSVR: the amyloid nucleation score entry is “inactive”.
GILFWSGL displayed an amyloid nucleation score of 1.07 ± 0.66.
On to GILYQV, for which the amyloid nucleation score was -0.403 ± 0.29.
On to GIQLTVFGLLLCFGTGLKVF, for which the amyloid nucleation score is 0.078 ± 0.6.
With GIRPNIANFSYKVHHPVLRG the entry was “inactive”.
With GITLSIAFLKAYLCRSKGGS the figure was 2.62 ± 0.14; with GIWCFACMSKFMYTRFSYN, -1.02 ± 0.67.
As for GKISICTRISMYSQSFVWIP, the figure is -0.109 ± 0.45; as for GKNWVRPRPGLVTNTKEYES, -0.46 ± 0.76; as for GKQHSLS, -1.44 ± 1.9.
With GKYILYDQCSNTINSGKLSI, the amyloid nucleation score entry is “inactive”.
As for GKYMFPCCMTAITQKLRPRR, the figure is -0.108 ± 0.33; as for GLAWTYLRPW, 0.143 ± 0.32; as for GLCYNEVDAVASGESGDDRG, -0.376 ± 0.45.
With GLDFCIVRACTKRYSWNQLG, the amyloid nucleation score is 1.69 ± 0.56.
As for GLFVREFPLDMIVVMVRSMC, the figure is -0.017 ± 0.97; as for GLGFTGWF, 0.708 ± 0.73; as for GLKALILNSSSCCRARFGAA, 0.307 ± 0.23.
Substance GLKIQPLCS displayed an amyloid nucleation score of 0.373 ± 0.49.
With GLLLSCSWNIDVSA the figure was 0.235 ± 0.56; with GLLRLDRVNISALICHQVNV, 0.873 ± 0.62.
As for GLPKSFM, the figure is -0.981 ± 1.3; as for GLQSKV, -0.974 ± 2.4.
For GLRALEMSLSES, the amyloid nucleation score result is “inactive”.
Regarding GLRQYF, the amyloid nucleation score is -0.317 ± 0.84.
With GLSGPRRQMSYMGWQRVRF the figure was -0.247 ± 1.1.
With GLTCSKAAIKRLG the figure was -0.367 ± 0.54.
With GLTINNSI the figure was 0.588 ± 0.38.
As for GLWLKLLVDLKHMKIEHPWH, the amyloid nucleation score amounted to 0.933 ± 0.72.
With GMMHYRFLIFFWYTSRTAYW the figure was -0.355 ± 0.84; with GMRVMRYYLPRGNQKFGESR, 0.823 ± 0.63; with GMWCLFRKCSVA, “inactive”.
As for GNAFFTYMINNYVSYFWHMP, the figure is 6.42 ± 0.059; as for GNCWYV, -0.16 ± 0.31.
Substance GNDLNRREVELGLNSIYKSY registered an amyloid nucleation score of 0.711 ± 0.73.
With GNKDDTV the figure was -1.6 ± 1.1; with GNNLHLRS, -0.121 ± 0.66; with GNPGFELWLLSMLIGA, “inactive”.
With GNSYLILNGRSYSRIFARSS the entry was “inactive”; with GNVFRLWLNM, 0.369 ± 0.38; with GNWTGGYCVCGRQSSLIVVE, -0.016 ± 1.7.
For the substance GPFGLGSMSGSIKWRYHVCC, the amyloid nucleation score came out at 0.528 ± 0.43.
In turn, GPISLWSPLRSVN came in with an amyloid nucleation score of 0.444 ± 0.84.
With GPKKTLMFPSFISDSCARKG the figure was 0.535 ± 1.2; with GPLINTDELWIWSAVCCCRL, -0.781 ± 1.9.
With GPRDFGDAWCYTSNNVKSCS the figure was 0.216 ± 0.48.
With GPSWFGVPTAAFF the figure was 0.502 ± 0.43; with GQHMASNLERMV, 3.34 ± 0.085.
Consider GQTITP, for which the amyloid nucleation score was -0.689 ± 1.
For the substance GRFRSTTVWFWVLDVLYGCS, the amyloid nucleation score was found to be 0.547 ± 0.29.
With GRFVEMRLEHYRLNSRENSL the figure was -1.75 ± 2.7; with GRGANLCYRTRTVLLVNNLS, -0.199 ± 1.2.
